± gives the uncertainty stated by the source.

B1: SWI/SNF complex subunit SMARCC1, residues 620 to 663; numbered along this chain, Q92922 (parent)
chain: GREWTEQETLLLLEALEMYKDDWNKVSEHVGSRTQDECILHFLR

Variants of B1 are the subject of the series. In words: abundance fitness (aPCA) (normalised: wild type 0, dead -1); higher = more abundant; growth selection in yeast, the domain comes from the species named. To be noted: Homo sapiens.
Regarding GREWTEQETLLLLEALEMYKDDWNKVSEHVGSRTQDLCILHFLR [E37L], the abundance fitness is -1.08 ± 0.24.

As for GREWTEQETLLLLEALEMYKDDWNKVSEHVGSRTQDVCILHFLR [E37V], the abundance fitness was -1.01 ± 0.23.

For the variant GREWTEQETLLLLEALEMYKDDWNKVSEHVGSRTQDRCILHFLR [E37R], the abundance fitness is -0.63 ± 0.15.

Regarding GREWTEQETLLLLEALEMYKDDWNKVSEHVGSRTQDPCILHFLR [E37P], the abundance fitness was -0.846 ± 0.18.

As for GREWTEQETLLLLEALEMYKDDWNKVSEHVGSRTQDNCILHFLR [E37N], the abundance fitness was -0.717 ± 0.41.

GREWTEQETLLLLEALEMYKDDWNKVSEHVGSRTQDTCILHFLR [E37T]: the abundance fitness was -0.738 ± 0.13.

For the variant GREWTEQETLLLLEALEMYKDDWNKVSEHVGSRTQDDCILHFLR [E37D], the abundance fitness stood at 0.021 ± 0.11.

As for GREWTEQETLLLLEALEMYKDDWNKVSEHVGSRTQDFCILHFLR [E37F], the abundance fitness is -1.02 ± 0.37.

Turning to GREWTEQETLLLLEALEMYKDDWNKVSEHVGSRTQDHCILHFLR [E37H], the abundance fitness is -0.668 ± 0.14.

For GREWTEQETLLLLEALEMYKDDWNKVSEHVGSRTQDSCILHFLR [E37S], the abundance fitness is -0.533 ± 0.14.

GREWTEQETLLLLEALEMYKDDWNKVSEHVGSRTQDGCILHFLR [E37G]: the abundance fitness was -0.722 ± 0.21.

For GREWTEQETLLLLEALEMYKDDWNKVSEHVGSRTQDECILHFER [L43E], the abundance fitness was 0.582 ± 0.07.

Consider GREWTEQETLLLLEALEMYKDDWNKVSEHVGSRTQDECILHFTR [L43T], for which the abundance fitness stood at 0.584 ± 0.063.

In the case of GREWTEQETLLLLEALEMYKDDWNKVSEHVGSRTQDECILHFRR [L43R], the abundance fitness was 0.507 ± 0.049.

On to GREWTEQETLLLLEALEMYKDDWNKVSEHVGSRTQDECILHFDR [L43D], for which the abundance fitness was 0.587 ± 0.069.

As to GREWTEQETLLLLEALEMYKDDWNKVSEHVGSRTQDECILHFAR [L43A], the abundance fitness was determined as 0.286 ± 0.069.

For GREWTEQETLLLLEALEMYKDDWNKVSEHVGSRTQDECILHFYR [L43Y], the abundance fitness is 0.126 ± 0.085.

Consider GREWTEQETLLLLEALEMYKDDWNKVSEHVGSRTQDECILHFVR [L43V], for which the abundance fitness amounted to 0.209 ± 0.058.

Turning to GREWTEQETLLLLEALEMYKDDWNKVSEHVGSRTQDECILHFHR [L43H], the abundance fitness stood at 0.514 ± 0.077.

In the case of GREWTEQETLLLLEALEMYKDDWNKVSEHVGSRTQDECILHFMR [L43M], the abundance fitness is 0.184 ± 0.11.

Consider GREWTEQETLLLLEALEMYKDDWNKVSEHVGSRTQDECILHFFR [L43F], for which the abundance fitness came to 0.149 ± 0.07.

As to GREWTEQETLLLLEALEMYKDDWNKVSEHVGSRTQDECILHFCR [L43C], the abundance fitness was determined as 0.187 ± 0.075.

As for GREWTEQETLLLLEALEMYKDDWNKVSEHVGSRTQDECILHFIR [L43I], the abundance fitness amounted to 0.098 ± 0.062.

GREWTEQETLLLLEALEMYKDDWNKVSEHVGSRTQDECILHFWR [L43W]: the abundance fitness stood at 0.076 ± 0.074.

As for GREWTEQETLLLLEALEMYKDDWNKVSEHVGSRTQDECILHFPR [L43P], the abundance fitness was 0.302 ± 0.065.

GREWTEQETLLLLEALEMYKDDWNKVSEHVGSRTQDECILHFKR [L43K]: the abundance fitness was 0.554 ± 0.07.

For the variant GREWTEQETLLLLEALEMYKDDWNKVSEHVGSRTQDECILHFQR [L43Q], the abundance fitness worked out at 0.645 ± 0.076.

Regarding GREWTEQETLLLLEALEMYKDDWNKVSEHVGSRTQDECILHFSR [L43S], the abundance fitness turned out to be 0.338 ± 0.058.

Take GREWTEQETLLLLEALEMYKDDWNKVSEHVGSRTQDECILHFGR [L43G]: the abundance fitness amounted to 0.342 ± 0.094.

Take GREWTEQETLLLLEALEMYKDDWNKVSEHVGSRTQDECILHVLR [F42V]: the abundance fitness was -0.134 ± 0.11.

Consider GREWTEQETLLLLEALEMYKDDWNKVSEHVGSRTQDECILHPLR [F42P], for which the abundance fitness is 0.405 ± 0.092.

Regarding GREWTEQETLLLLEALEMYKDDWNKVSEHVGSRTQDECILHWLR [F42W], the abundance fitness worked out at 0.401 ± 0.089.

Regarding GREWTEQETLLLLEALEMYKDDWNKVSEHVGSRTQDECILHGLR [F42G], the abundance fitness is 0.307 ± 0.073.

Take GREWTEQETLLLLEALEMYKDDWNKVSEHVGSRTQDECILHYLR [F42Y]: the abundance fitness was found to be 0.349 ± 0.13.

Turning to GREWTEQETLLLLEALEMYKDDWNKVSEHVGSRTQDECILHRLR [F42R], the abundance fitness turned out to be 0.337 ± 0.083.

For GREWTEQETLLLLEALEMYKDDWNKVSEHVGSRTQDECILHMLR [F42M], the abundance fitness is -0.2 ± 0.14.

Take GREWTEQETLLLLEALEMYKDDWNKVSEHVGSRTQDECILHALR [F42A]: the abundance fitness was determined as 0.053 ± 0.088.

On to GREWTEQETLLLLEALEMYKDDWNKVSEHVGSRTQDECILHKLR [F42K], for which the abundance fitness was determined as 0.592 ± 0.087.

As for GREWTEQETLLLLEALEMYKDDWNKVSEHVGSRTQDECILHCLR [F42C], the abundance fitness was -0.286 ± 0.15.

Take GREWTEQETLLLLEALEMYKDDWNKVSEHVGSRTQDECILHTLR [F42T]: the abundance fitness is -0.007 ± 0.26.

Turning to GREWTEQETLLLLEALEMYKDDWNKVSEHVGSRTQDECILHELR [F42E], the abundance fitness turned out to be 0.767 ± 0.18.

For the variant GREWTEQETLLLLEALEMYKDDWNKVSEHVGSRTQDECILHSLR [F42S], the abundance fitness was determined as 0.25 ± 0.092.

GREWTEQETLLLLEALEMYKDDWNKVSEHVGSRTQDECILHLLR [F42L]: the abundance fitness is -0.29 ± 0.073.

Turning to GREWTEQETLLLLEALEMYKDDWNKVSEHVGSRTQDECILHNLR [F42N], the abundance fitness is 0.429 ± 0.11.

On to GREWTEQETLLLLEALEMYKDDWNKVSEHVGSRTQDEAILHFLR [C38A], for which the abundance fitness was -0.572 ± 0.11.

As for GREWTEQETLLLLEALEMYKDDWNKVSEHVGSRTQDEIILHFLR [C38I], the abundance fitness is -0.361 ± 0.076.

As for GREWTEQETLLLLEALEMYKDDWNKVSEHVGSRTQDELILHFLR [C38L], the abundance fitness is -0.5 ± 0.11.

GREWTEQETLLLLEALEMYKDDWNKVSEHVGSRTQDETILHFLR [C38T]: the abundance fitness was -0.4 ± 0.12.

With GREWTEQETLLLLEALEMYKDDWNKVSEHVGSRTQDESILHFLR [C38S], the abundance fitness is -0.624 ± 0.087.

Consider GREWTEQETLLLLEALEMYKDDWNKVSEHVGSRTQDEDILHFLR [C38D], for which the abundance fitness was -0.296 ± 0.17.

GREWTEQETLLLLEALEMYKDDWNKVSEHVGSRTQDEPILHFLR [C38P]: the abundance fitness is -0.73 ± 0.12.

For the variant GREWTEQETLLLLEALEMYKDDWNKVSEHVGSRTQDEVILHFLR [C38V], the abundance fitness was -0.348 ± 0.089.

For GREWTEQETLLLLEALEMYKDDWNKVSEHVGSRTQDEQILHFLR [C38Q], the abundance fitness was -0.514 ± 0.16.

For GREWTEQETLLLLEALEMYKDDWNKVSEHVGSRTQDEYILHFLR [C38Y], the abundance fitness was -0.903 ± 0.33.

Take GREWTEQETLLLLEALEMYKDDWNKVSEHVGSRTQDERILHFLR [C38R]: the abundance fitness is -0.367 ± 0.13.

Regarding GREWTEQETLLLLEALEMYKDDWNKVSEHVGSRTQDEWILHFLR [C38W], the abundance fitness is -0.79 ± 0.31.

Take GREWTEQETLLLLEALEMYKDDWNKVSEHVGSRTQDEMILHFLR [C38M]: the abundance fitness was -1.09 ± 0.34.

GREWTEQETLLLLEALEMYKDDWNKVSEHVGSRTQDEHILHFLR [C38H]: the abundance fitness was -0.774 ± 0.17.

For the variant GREWTEQETLLLLEALEMYKDDWNKVSEHVGSRTQDEGILHFLR [C38G], the abundance fitness is -0.778 ± 0.21.

(Values after the Human Domainome abundance scans (Beltran et al. 2025).)
